Test results from FireProtDB (doi:10.1110/ps.0237703).

B1: N183S, O00095 (parent)
chain: MKFLQVLPALIPAALAQTSCDQWATFTGNGYTVSNNLWGASAGSGFGCVTAVSLSGGASWHADWQWSGGQNNVKSYQNSQIAIPQKRTVNSISSMPTTASWSYSGSNIRANVAYDLFTAANPNHVTYSGDYELMIWLGKYGDIGPIGSSQGTVNVGGQSWTLYYGYNGAMQVYSFVAQTNTTNYSGDVKNFFNYLRDNKGYNAAGQYVLSYQFGTEPFTGSGTLNVASWTASIN

Variants of: B1
Conditions: Hypocrea jecorina; pH 8; Thermal; CD; Bis-Tris propane ammonium acetate 0.05 M 0.05 M; reversible: No; structure 1H8V; whole UniProt chain shown

| Variant | Tm [°C] | change of melting temperature, mutant - wild type (higher = more stable) [°C] |
| --- | --- | --- |
| MKFLQVLPALIPAALAQTSCDQWATFTGNGYTVSNNLWGASAGSGFGCVTAVSLSGGASWHADWQWSGGQNNVKSYQNSQIAIPQKRTVNSISSMPTTASWSYSGSNIRANVAYDLFTAANPNHVTYSGDYELMIWLGKYGDIGPIGSSQGTVNVGGQSWTLYYGYNGAMQVYSFVAQTNTTSYSGDVKNFFNYLRDNKGYNAAGQYVLSYQFGTEPFTGSGTLNVASWTASIN [N183S] | 54.6 | 0.2 |
| MKFLQVLPALIPAALAQTSCDQWATFTGNGYTVSNNLWGASAGSGFGCVTAVSLSGGASWHADWQWSGGQNNVKSYQNSQIAIPQKRTVNSIGSMPTTASWSYSGSNIRANVAYDLFTAANPNHVTYSGDYELMIWLGKYGDIGPIGSSQGTVNVGGQSWTLYYGYNGAMQVYSFVAQTNTTNYSGDVKNFFNYLRDNKGYNAAGQYVLSYQFGTEPFTGSGTLNVASWTASIN [S93G] | 54.5 | 0.1 |
| MKFLQVLPALIPAALAQTSCDQWATFTGNGYTVSNNLWGASAGSGFGCVTAVSLSGGASWHADWQWSGGQNNVKSYQNSQIAIPQKRTVNSISSMPTTASWSYSGSNIRANVAYDLFTAANPNHVTYSGDYELMIWLGKYGDIGPIGSSQGTVNVGGQTWTLYYGYNGAMQVYSFVAQTNTTNYSGDVKNFFNYLRDNKGYNAAGQYVLSYQFGTEPFTGSGTLNVASWTASIN [S159T] | 54.9 | 0.5 |
| MKFLQVLPALIPAALAQTSCDQWATFTGNGYTVSNNLWGASAGSGFGCVTAVSLSGGASWHADWQWSGGQNNVKSYQNVQIAIPQKRTVNSISSMPTTASWSYSGSNIRANVAYDLFTAANPNHVTYSGDYELMIWLGKYGDIGPIGSSQGTVNVGGQSWTLYYGYNGAMQVYSFVAQTNTTNYSGDVKNFFNYLRDNKGYNAAGQYVLSYQFGTEPFTGSGTLNVASWTASIN [S79V] | 53.6 | -0.8 |
| MKFLQVLPALIPAALAQTSCDQWATFTGNGYTVSNNLWGASAGSGFGCVTAVSLSGGASWHADWQWSGGQNNVKSYQNSQINIPQKRTVNSISSMPTTASWSYSGSNIRANVAYDLFTAANPNHVTYSGDYELMIWLGKYGDIGPIGSSQGTVNVGGQSWTLYYGYNGAMQVYSFVAQTNTTNYSGDVKNFFNYLRDNKGYNAAGQYVLSYQFGTEPFTGSGTLNVASWTASIN [A82N] | 54.5 | 0.1 |
| MKFLQVLPALIPAALAQTSCDQWATFTGNGYTVSNNLWGASAGSGFGCVTAVSLSGAASWHADWQWSGGQNNVKSYQNSQIAIPQKRTVNSISSMPTTASWSYSGSNIRANVAYDLFTAANPNHVTYSGDYELMIWLGKYGDIGPIGSSQGTVNVGGQSWTLYYGYNGAMQVYSFVAQTNTTNYSGDVKNFFNYLRDNKGYNAAGQYVLSYQFGTEPFTGSGTLNVASWTASIN [G57A] | 56.9 | 2.5 |
| MKFLQVLPALIPAALAQTSCDQWATFSGNGYIVSNNLWGASAGSGFGCVTAVSLSGGASWHADWQWSGGQNNVKSYQNSQIAIPQKRTVNSISSMPTTASWSYSGSNIRANVAYDLFTAANPNHVTYSGDYELMIWLGKYGDIGPIGSSQGTVNVGGQSWTLYYGYNGAMQVYSFVAQTNTTNYSGDVKNFFNYLRDNKGYNAAGQYVLSYQFGTEPFTGSGTLNVASWTASIN [T27S T32I] | 55.5 | 1.1 |
| MKFLQVLPALIPAALAQTSCDQWATFTGNGYTVSNNLWGASAGSGFGCVTSVSLSGGASWHADWQWSGGQNNVKSYQNSQIAIPQKRTVNSISSMPTTASWSYSGSNIRANVAYDLFTAANPNHVTYSGDYELMIWLGKYGDIGPIGSSQGTVNVGGQSWTLYYGYNGAMQVYSFVAQTNTTNYSGDVKNFFNYLRDNKGYNAAGQYVLSYQFGTEPFTGSGTLNVASWTASIN [A51S] | 50.4 | -4 |
| MKFLQVLPALIPAALAQTSCDQWATFTGNGYTVSNNLWGASAGSGFGCVTVVSLSGGASWHADWQWSGGQNNVKSYQNSQIAIPQKRTVNSISSMPTTASWSYSGSNIRANVAYDLFTAANPNHVTYSGDYELMIWLGKYGDIGPIGSSQGTVNVGGQSWTLYYGYNGAMQVYSFVAQTNTTNYSGDVKNFFNYLRDNKGYNAAGQYVLSYQFGTEPFTGSGTLNVASWTASIN [A51V] | 62.1 | 7.7 |
| MKFLQVLPALIPAALAQTSCDQWATFTGNGYTVSNNLWGASAGSGFGCVTAVSLNGGASWHADWQWSGGQNNVKSYQNSQIAIPQKRTVNSISSMPTTASWSYSGSNIRANVAYDLFTAANPNHVTYSGDYELMIWLGKYGDIGPIGSSQGTVNVGGQSWTLYYGYNGAMQVYSFVAQTNTTNYSGDVKNFFNYLRDNKGYNAAGQYVLSYQFGTEPFTGSGTLNVASWTASIN [S55N] | 54.9 | 0.5 |
| MKFLQVLPALIPAALAQTSCDQWATFTGNGYTVSNNLWGASAGSGFGCVTAVSLSGGASWHADWQWSGGQNNVKSYQNSQIAIPQKRTVNSISSMPTTASWSYSGSDIRANVAYDLFTAANPNHVTYSGDYELMIWLGKYGDIGPIGSSQGTVNVGGQSWTLYYGYNGAMQVYSFVAQTNTTNYSGDVKNFFNYLRDNKGYNAAGQYVLSYQFGTEPFTGSGTLNVASWTASIN [N107D] | 54.9 | 0.5 |
| MKFLQVLPALIPAALAQTSCDQWATFTGNGYTVSNNLWGASAGSGFGCVTAVSLSGGASWHADWQWSGGQNNVKSYQNSQIAIPQKRTVNSISSMPTTASWSYSGSNIRANVAYDLFTAANPNHVTYSGDYELMIWLGKYGDIGPIGSSQGTVNVGGQSWTLYYGYNGAMQVYSFVAQSNTTNYSGDVKNFFNYLRDNKGYNAAGQYVLSYQFGTEPFTGSGTLNVASWTASIN [T179S] | 54.7 | 0.3 |
| MKFLQVLPALIPAALAQTSCDQWATFTGNGYTVSNNLWGASAGSGFGCVTAVSLSGGASWHADWQWSGGQNNVKSYQNSQIAIPQKRTVNSISSMPTTASWSYSGSNIRANVAYDLFTAANPNHVTYSGDYELMIWLGKYGDIGPIGSSQGTVNVGGQSWTLYYGYNGAMQVYSFVAQTNTTNYSGDVKNFFNYLRDNKGYNAGGQYVLSYQFGTEPFTGSGTLNVASWTASIN [A204G] | 54.9 | 0.5 |
| MKFLQVLPALIPAALAQTSCDQYATFTGNGYTVSNNLWGASAGSGFGCVTAVSLSGGASWHADWQWSGGQNNVKSYQNSQIAIPQKRTVNSISSMPTTASWSYSGSNIRANVAYDLFTAANPNHVTYSGDYELMIWLGKYGDIGPIGSSQGTVNVGGQSWTLYYGYNGAMQVYSFVAQTNTTNYSGDVKNFFNYLRDNKGYNAAGQYVLSYQFGTEPFTGSGTLNVASWTASIN [W23Y] | 53.4 | -1 |
